Results published in the DeepSol protein solubility set.

test: soluble on expression in E. coli; label from the status in PepcDB or PDB records

| Sequence | soluble on expression in E. coli |
| --- | --- |
| MTSEHRSASVTPRHISFFNIPGHGHVNPSLGIVQELVARGHRVSYAITDEFAAQVKAAGATPVVYDSILPKESNPEESWPEDQESAMGLFLDEAVRVLPQLEDAYADDRPDLIVYDIASWPAPVLGRKWDIPFVQLSPTFVAYEGFEEDVPAVQDPTADRGEEAAAPAGTGDAEEGAEAEDGLVRFFTRLSAFLEEHGVDTPATEFLIAPNRCIVALPRTFQIKGDTVGDNYTFVGPTYGDRSHQGTWEGPGDGRPVLLIALGSAFTDHLDFYRTCLSAVDGLDWHVVLSVGRFVDPADLGEVPPNVEVHQWVPQLDILTKASAFITHAGMGSTMEALSNAVPMVAVPQIAEQTMNAERIVELGLGRHIPRDQVTAEKLREAVLAVASDPGVAERLAAVRQEIREAGGARAAADILEGILAEAG | soluble |
| MTSIALQLLLLLQPYTLTIRRSKMSTKLKQNLEGSFFVVSFSACSPGSKCEISCNITTFRFILYNIAPLFIARKQRQRIGQFAVVRRVRDRKTGEKYAAKFIKKRRYATSRRGVTRQNIEREVRVLQKIRGNSNVVELHAVYETASDVIIVLELVSGGELFDHVCAKECLDEVEAAAFIKQILLAVRHLHSLHIVHLDIKPENVMLKQRGDSQIKIIDFGLSREIEPGAVVKDMVGTPEFVAPEVVNYEALSPATDMWAVGVVTYILLSGGSPFLGDNRDETFSNITRVRYHFSDRYFKNTSKHAKDFIYRLFVRDVDQRATVEECLQHPWIRGPEGNAIDIRKASCITISHIQSFKTRQRWKRCVELVMVLLKASKSSRRIGDGRFDEEDMVASCTLICAEEGNLRALHKLSALHKLLPNATRKSLKSSFSEPNGATAMHCAAKYGHAEVFNYFHMKGGNICARDDNGDTPLHVACRFAQHTVAGYVANEKIDVDSINKTGETALHCAVESADTRVVRLLLQLRPRLDLPNAREETPLHVAAARGHVDCVQALLDANSPIDAVEQDGKTALIIALENGNVDIASILITNGCDINHADHHGDTALHIASKHGLLQAVQTLCHCAVTVDSVNANKKTALHLAAHYGHVDIIRVLLLARADVTLRGDDGLTAELVAVAAERLEAHSLLKMVKSQEIREEYISQLYPLDTSLRRIKLKLLGHSQSGKTRLVQTLHSSRGISSFLESVTRRISDHYSPSSSMKDDGIHSTNGSFVSESNNNSSFDLAAAAGSKYAPPHSQYTRGIDVQTVNINGCGEFSVWEFGGYEPMHTCYDHFVGNADCIHLILYRTSDPTEVQYKQILYWMNFLKGRVTPFEPIGHCGFSSRRSKVIIVGTHATSSLFPQMNQEGEYVSSDIEAMLNTVRLRFETHFDMDHRLILLDATNPSCIGMKTLKMELAKCRTNILAKLLKPLAILDTVVNHLNLVRKKHANFPVITWPDFIQLVRNEINPLTGDAHCRQIVQQLQLIGELVYLRNDLCDADYVVLNAEWFGTHILGQLLSAEFLSKASPNGSYHTSSLAKIFPEIPEQSDLMTILEVLQLCAPDARTGAHEFPVFIQTEAPDSIWRPYSLKEKERDTVYGGVRILPMRGMERSLHSTFPRIQVALRRSINDYQPAKDTQLHQWSECSKLVSQDREAVIRMVGDAVEIRARGPSESATSMFYFMEDLINLVEHAAAEVGPGISLERHFISPKHLKEHREHPALFPPESMMEMQQRESLSVKGTQDEEELFTDVVCFGSRDVARHLTLGIDVGVADLQMASRCELACLLDPPHAMGRDWSILAVKLQLTDQVPDVDSTGQSLSRTDQLLNEWAIHHPEQASVGNLCRILVELGRCDARDALYRTVPLYVFAPLEDQFLLETNDSGVVSSCHSSSEHNPINI | not soluble |
| MTSLCNKELSDTLVGLYDDYKRGFDIGEELKLCVDLALTLELELSIHRLSETDTVLKKEIIQTLQNRRNSHSNEDETIDETGTIIQMDFKERN | soluble |
| MTSRTPLVSVLPDFPWDSLASAKAKAASHPDGIVNLSVGTPVDPVAPSIQIALAEAAGFSGYPQTIGTPELRAAIRGALERRYNMTKLVDASLLPVVGTKEAIALLPFALGISGTVVIPEIAYPTYEVAVVAAGCTVLRSDSLFKLGPQIPSMMFINSPSNPTGKVLGIPHLRKVVKWAQENNVILAADECYLGLGWDDENPPISILDPRVCDGDHTNLIAIHSLSKTSNLASYRAGYLVGDPALIGELTEVRKNLGLMVPFPIQQAMIAALNDDDQEAGQKLTYAIRRAKLMRALLESGFQVDNSEAGLYLWATREEPCRDTVDWFAERGILVAPGDFYGPRGAQHVRVAMTETDERVDAFVSRLS | soluble |
| MTTAAEIITVEKLNDFDYKVALQQQMVAAQNGAAAAVLRPHQIGSSPEAPQSQTSGGSTEQLQQQPLPPPTQQKQQQPLTIGPVAPNDRSTSSSSTDGPRRLHVSNIPFKYREPDLTAMFEKVGPVVDVEIIFNERGSKGFGFVTMQNPDDADRARAEFNGTTIEGRRVEVNLATQRVHNKKAKPLMSVGVDAMSAQNALISQQQQIQRAALLQQQLLAQQFLVPRHQQLMMPPTSAAAISQLQALQYQQALLAAQQQQQQMQNPQFLLSLQQQQQAQAQAPPTSMAQLIQHQQQFAMDPMAQAQAQAAQAQMVTLIAFEQQRMQLQAAAAAAQGRGVPQPGRIPTSTATTGSSQNQVAAGSIGEQYLQQSMQGAVPANFHHHSQALHPAAAAAAALQRRFAPY | not soluble |
| MTTEYLDEERDLPLPRQKKGIDHTQTEPIRGFFGVKDMFAFENVGFTRSSEGKRYLVCGECEQGPVGFVDPVTEMNYVSPERLDVLPDVAAAAVEAGK | not soluble |
| MTTHIQKPATGSPLTLLNGVLQVPDQPIIPFIEGDGIGCDVTPAMRSVVDAAVAKVYGGQRQIAWMELFAGQKAVQLYGEGQYLPDETMAAIREYKVAIKGPLETPVGGGIRSLNVAMRQDLDLYVCLRPVRYFEGTPSPMRHPEKVDMVIFRENSEDIYAGIEWPAGSPEAEKIIRFLREEMGVTKIRFPDSSAIGIKPVSTEGSERLIRRTIQYALEHGKPSVSLVHKGNIMKFTEGGFRDWGYALAEREFAGRVFTWRQKAAISKAEGKAAGQKAEQQAIADGKLIIKDVIADNFLQQILLRPEDYSVVATLNLNGDYVSDALAAEVGGIGMAPGANLSDTHAIFEATHGTAPDIAGQGKANPSSLILSAVMMLEHLGWGEAAQAIVAAMNATIAAGEVTGDLAALRGDVPALSTTEFTAALIRRF | soluble |
| MTTKLVRPSDQATSNQVPVPGALVPHLDQCALLLDIDGTLLDLAPTPREVWVPPELEQTLTNLLVRTSGALALVSGRSINDIDLIFAPMRLPAVGGHGAEMRLSGEGEAIATHAPPLDSELKSRLAAIARISPGILLEDKGYSLALHYRLAPHTEKAIYEAVAAIRAENPEAPLEVLPGKSVCEIKHSGFTKATGVLELMTRAPFKGRRPIFIGDDVTDETVFAIMPELRGLAFSVGRYSELTSGHFDEPRDVRNWLARLLEPANLEHHHHHH | soluble |
| MTTLTLAELATITGGELFGDPTALVSAVAPMDKAQLGHVTFLSNPKYSKHLGDCKATVIMVKTSERELCPSNALVVADPYVAFAKVAQALDSTPSPAHGIAPSAVIAEDAKLGHNVSIGANAVIESGVQLGDNVVIGAGCFIGKQARLGDNTKLWANVTIYHKVEIGSDCLIQSGTVIGADGFGYANERGEWIKIPQLGSVRIGDRVEIGACTTIDRGALDDTVIEDNVIIDNQLQIAHNVHIGYGSALAGGTVIAGSTRIGKYCIIGGASVINGHIEIADGVTITGMGMVMRSIEEKGMYSSGIPLQTNKEWRKTAARVHRIDDMHKRLKALEKLLEQSDTVQPDNSQAE | not soluble |
| MTTPFTHETLPADPKAAIRQMKQALRAQIGDVQAVFDRLSATIAARVAEINDLKAQGQPVWPIIPFSELAMGNISDATRAEVKRRGCAVIKGHFPREQALAWDQSMLDYLDKNHFDEVYKGPGDNFFGTLSASRPEIYPVYWSQAQMQARQSEEMALAQSFLNRLWQVEHDGKRWFNPDISIIYPDRIRRRPPGTTSKGLGAHTDSGALERWLLPAYQQVFASVFNGNVEQYDPWNAAHRTDVEEYTVDNTTKCSVFRTFQGWTALSDMLPGQGLLHVVPIPEAMAYILLRPLLDDVPEDELCGVAPGRVLPISEQWHPLLMAALTSIPPLEAGDSVWWHCDVIHSVAPVENQQGWGNVMYIPAAPMCEKNLAYARKVKAALETGASPGDFPREDYETTWEGRFTLRDLNIHGKRALGIDV | soluble |
| MTTTPANVLASVDLGSNSFRLQICENNNGQLKVIDSFKQMVRFAAGLDEQKNLSAASQEQALDCLAKFGERLRGFRPEQVRAVATNTFRVAKNIADFLPKAEAALGFPIEIIAGREEARLIYTGVIHTLPPGGGKMLVIDIGGGSTEFVIGSTLNPDITESLPLGCVTYSLRFFQNKITAKDFQSAISAARNEIQRISKNMRREGWDFAVGTSGSAKSIRDVLAAEMPQEADITYKGMRALAERIIEAGSVKKAKFENLKPERIEVFAGGLAVMMAAFEEMKLDRMTVTEAALRDGVFYDLIGRGLNEDMRGQTVAEFQHRYHVSLNQAKRTAETAQTFMDSLCHAKNVTVQELALWQQYLGRAAALHEIGLDIAHTGYHKHSAYILENADMPGFSRKEQTILAQLVIGHRGDMKKMSGIIGTNEMLWYAVLSLRLAALFCRSRQDLSFPKNMQLRTDTESCGFILRIDREWLERHPLIADALEYESVQWQKINMPFKVEAV | not soluble |
| MTVERLENGVIVQRNTNEIEISITLDTVHGKLEGSTGVNFFDHLLNTFCHYSGLGLRVSTCESKDGILHHLIEDFGISLGLAFRELFDYTKVRRFGEATVPMNEALVGCYVDLSGRPFFQKNFEFSVEKIEDMPVEGFEEFMCGFVNHARITVHFFKFFGKNDHHISESAMKSFGLAIAKALESSEKKTTKGVID | soluble |
| MTVITEPARQTPVIHNTDVLVVGSGPGGLAAALAAARAGVDVCLVERFGCFGGNITVVGVEGFAWYRHEATVEAGGIGREFEDRAREMGAAVPESQSLSYEIDSEGFKLVADRLVEEAGVHGMLHRQFVAPVMEGDRVAGIIVESKAGREAILARVVIDATGDADVAHRAGAPTLKTPAEHMQAASVMFHLAGVDKAAFMAEVRRDPQTYKDWSTGEWTVETDGKEDDMFSPFLKKPFAKAIEEGVIPPHLNTIAGTWGAMHDTGELTYMNLVHLAGVDGTDPDSLTQGEIEGRRQAMLAIEALRRFMPGCGGVRLRNFGMTIGIRDTRKIRAAYDMTETDVRQQGRFDDSIGIYPEFIDGYGVLIIPTTGRYMQIPYRAVLPGKVKGLLVAGRAIGGDRIAHAATRNMACCAVAGQGAGVAAALAVKTGCDVAQVDMAGVQAELLRQGVRIALEHHHHHH | not soluble |
| MTVRVGDPELVLDPYDYDFHEDPYPYYRRLRDEAPLYRNEERNFWAVSRHHDVLQGFRDSTALSNAYGVSLDPSSRTSEAYRVMSMLAMDDPAHLRMRTLVSKGFTPRRIRELEPQVLELARIHLDSALQTESFDFVAEFAGKLPMDVISELIGVPDTDRARIRALADAVLHREDGVADVPPPAMAASIELMRYYADLIAEFRRRPANNLTSALLAAELDGDRLSDQEIMAFLFLMVIAGNETTTKLLANAVYWAAHHPGQLARVFADHSRIPMWVEETLRYDTSSQILARTVAHDLTLYDTTIPEGEVLLLLPGSANRDDRVFDDPDDYRIGREIGCKLVSFGSGAHFCLGAHLARMEARVALGALLRRIRNYEVDDDNVVRVHSSNVRGFAHLPISVQAR | not soluble |
| MTVSGPGTPEPRPATPGASSVEQLRKEGNELFKCGDYGGALAAYTQALGLDATPQDQAVLHRNRAACHLKLEDYDKAETEASKAIEKDGGDVKALYRRSQALEKLGRLDQAVLDLQRCVSLEPKNKVFQEALRNI | soluble |
| MTVTYIGHSGFLLETEDAYFLFDYFEGTIPELKNNKSIIVFSSHRHHDHFNPEIFELIKIYPDIRYVLSYDIPLKRHLKKYENQGIDLAKNILITKKNIETMLKLPNGKDLKISTFRSTDEGVAFLLEYDNKVYYHAGDLNCWYWKEEPKSYRNNMIQLYIREIQKMDNLKIDVAFVPLDPRLEETAYEGLEIFMEHTNPQIVFPMHCWGKYDIISSFLNKHPEYKEKIRMINNEGQIFNV | not soluble |
